According to the supplement of paper PMC10126150:
± gives the standard deviation of the averaged measurements.

The sequences below were run on ATP (assay: switch fluorescence ratio, 500 uM ATP over buffer (Cy3 cluster intensity, sum of 5 cycles each) (fold (ratio)); higher = stronger signal-on switching upon ATP binding; sequences stand for … in TCGTCGGCAGCGTCAGATGTGTATAAGAGACAGTTTTTTTTTTTTTTTTTTTTTTTTT…TC). Details: aptamer strand: ATP DNA aptamer (quencher-CACCTGGGGGAGTATTGCGGAGGAAGG + anchor), 100 nM annealed; ATP concentration: 500 uM.
How it was run: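 Imaging in selection buffer was followed by imaging after 15 min with 500 uM ATP at 22 °C, for Cy3-labelled switching-strand clusters annealed to 100 nM quencher-labelled ATP aptamer on a modified Illumina MiSeq flow-cell. Five of these buffer/ATP cycles ran, separated by NaOH stripping and re-annealing. The fluorescence ratio per cluster is summed target-cycle over summed buffer-cycle Cy3 intensity, averaged per switch-domain sequence; clusters outside 100-1000 RFU were removed.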
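Also: ATP exposure 15 min at 22 °C before imaging.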

TTAGGATAGT and CAGGGGGCAG are within error of each other in switch fluorescence ratio: 0.998 ± 0.027 for the first, 1.05 ± 0.07 for the second.

GCTTCTGGGG and TAAAGGTAGT are within error of each other in switch fluorescence ratio: 1.03 ± 0.028 for the first, 1 ± 0.032 for the second.

AATGGTGGTT and GGGTGTGAGT are within error of each other in switch fluorescence ratio: 0.996 ± 0.03 for the first, 1.03 ± 0.018 for the second.

First: ATACGGAAAA
Second: GAAGTGATGG
The switch fluorescence ratio of the first is lower: 1.046 ± 0.004 for the first, 1.135 ± 0.008 for the second.

TATATTACGA and GAAACTTAGG are within error of each other in switch fluorescence ratio: 1.03 ± 0.013 for the first, 1.01 ± 0.019 for the second.

TATGGCATGG and AGTTGGGTCG are the same in switch fluorescence ratio: 1 ± 0.05 for the first, 1.004 ± 0.0056 for the second.

ATAACTCGGA and CGGTTGGGGA are within error of each other in switch fluorescence ratio: 1 ± 0.0019 for the first, 0.985 ± 0.036 for the second.

Compared with TTATACCAAG, ATTGAAAAAT is lower in switch fluorescence ratio: 1.03 ± 0.023 for the first, 0.983 ± 0.012 for the second.

First: GATATGCTAC
Second: AAAAATGGGG
The switch fluorescence ratio of the first is higher: 1.2 ± 0.023 for the first, 0.972 ± 0.0098 for the second.

TTTAACGGGG and TTTTTGGGTT are within error of each other in switch fluorescence ratio: 0.987 ± 0.034 for the first, 1.02 ± 0.048 for the second.

TAACGCCGTG and GGGAGCTGAG are within error of each other in switch fluorescence ratio: 1.02 ± 0.029 for the first, 1.015 ± 0.0055 for the second.

TTTTATGAAA and TTGGGTATGA are within error of each other in switch fluorescence ratio: 0.997 ± 0.012 for the first, 1.01 ± 0.037 for the second.

TTGTTCTGGG and GCGGGTCTGC are within error of each other in switch fluorescence ratio: 0.972 ± 0.022 for the first, 0.963 ± 0.028 for the second.

First: CGCCTCGTAC
Second: GGGTGAAGTT
The switch fluorescence ratio of the first is higher: 1.9 ± 0.062 for the first, 0.984 ± 0.036 for the second.

CAAGGAGTTA and CGTGGTTGAG are within error of each other in switch fluorescence ratio: 1.01 ± 0.04 for the first, 0.976 ± 0.018 for the second.

TGGAGTTAGG and GGCGTTGTCC are within error of each other in switch fluorescence ratio: 0.995 ± 0.013 for the first, 1.02 ± 0.044 for the second.

Compared with CAAATTTGCT, CCTCAGAGGG is higher in switch fluorescence ratio: 0.967 ± 0.022 for the first, 1.24 ± 0.22 for the second.

GTTGTTTGGG and ATATTGGGAG are the same in switch fluorescence ratio: 0.99 ± 0.034 for the first, 0.99 ± 0.025 for the second.

First: GAGTAGGACC
Second: TGCTGAAGAT
The switch fluorescence ratio of the first is higher: 1.03 ± 0.016 for the first, 1.003 ± 0.0067 for the second.

First: AGTTTTTTTC
Second: AGGTAGATAG
The switch fluorescence ratio of the first is higher: 1.02 ± 0.023 for the first, 0.948 ± 0.0068 for the second.

AGTAGGTAGG and TCCTAGGTCT are within error of each other in switch fluorescence ratio: 0.981 ± 0.03 for the first, 1.009 ± 0.0029 for the second.

CAGAGGAGGC and GAGAGGCAAA are within error of each other in switch fluorescence ratio: 0.987 ± 0.016 for the first, 1.01 ± 0.018 for the second.

GATGTTGGAA and ATCGGAGGCA are within error of each other in switch fluorescence ratio: 0.997 ± 0.034 for the first, 1.0107 ± 0.00084 for the second.

Compared with TTTTGCGCCG, TTGTTAGGGT is lower in switch fluorescence ratio: 1.06 ± 0.06 for the first, 0.958 ± 0.011 for the second.

Going from ACTGGGTACC to GAGTAATGTT, the switch fluorescence ratio falls from 1.05 ± 0.012 to 1.02 ± 0.016.

First: ATTTTTTCGT
Second: CACTCGCCTC
The switch fluorescence ratio of the first is lower: 1.04 ± 0.036 for the first, 1.134 ± 0.0068 for the second.

CCTGGGCCGG and ATAATTGTCT are within error of each other in switch fluorescence ratio: 1.06 ± 0.058 for the first, 1.04 ± 0.04 for the second.

TTTTGGGCTT and AAATGTTACA are within error of each other in switch fluorescence ratio: 1.12 ± 0.22 for the first, 1.06 ± 0.021 for the second.

GTATAGTCGG and TTTTCGCTAT are within error of each other in switch fluorescence ratio: 1.04 ± 0.017 for the first, 2.29 ± 1.6 for the second.

First: TTTTTAAA
Second: TTGTAGGGAA
The switch fluorescence ratio of the first is lower: 0.988 ± 0.017 for the first, 1.03 ± 0.013 for the second.

AGGCCTGAAA and TGTCCATGGG are within error of each other in switch fluorescence ratio: 0.983 ± 0.07 for the first, 1.013 ± 0.0047 for the second.

First: AGTACCGGGT
Second: AAGAGGGTAA
The switch fluorescence ratio of the first is higher: 1.04 ± 0.049 for the first, 0.963 ± 0.012 for the second.

Compared with ATGTGATAGT, TAGGTCTCAG is higher in switch fluorescence ratio: 0.98 ± 0.015 for the first, 1.029 ± 0.0085 for the second.

GGTTTCATAT and CTAGTCAGGT are within error of each other in switch fluorescence ratio: 0.996 ± 0.026 for the first, 1.018 ± 0.0012 for the second.

CGGGAGGCCT and AGGTCAGGTT are the same in switch fluorescence ratio: 1.01 ± 0.062 for the first, 1.0131 ± 0.0003 for the second.

AAGGACGGCC and TCTCTTATGT are within error of each other in switch fluorescence ratio: 0.998 ± 0.026 for the first, 0.985 ± 0.033 for the second.

Going from CGTGCTCAGG to CGTAATGGCA, the switch fluorescence ratio falls from 1.162 ± 0.011 to 1.01 ± 0.017.

Compared with CCTGTGGCAC, TGATTGTGGG is lower in switch fluorescence ratio: 1.21 ± 0.054 for the first, 1.03 ± 0.033 for the second.

Going from TTTCGCTCGT to GTGATCCTTC, the switch fluorescence ratio rises from 0.9628 ± 0.003 to 1.03 ± 0.034.

First: CAGCGCATTA
Second: TTGGGCCTCT
The switch fluorescence ratio of the first is higher: 2.01 ± 0.11 for the first, 1.01 ± 0.029 for the second.

Compared with TTTCTAAGTC, GTGGATAAGA is higher in switch fluorescence ratio: 0.9559 ± 0.006 for the first, 1.0003 ± 1.9e-06 for the second.

TAGGACAGCG and GGCCTGGATC are within error of each other in switch fluorescence ratio: 0.969 ± 0.078 for the first, 1.02 ± 0.057 for the second.

AAGAGAGAGC and CTTTGATTGA are within error of each other in switch fluorescence ratio: 0.989 ± 0.007 for the first, 0.9806 ± 0.0047 for the second.

CGTATTAAGC and AAAGATCGGA are within error of each other in switch fluorescence ratio: 0.955 ± 0.015 for the first, 0.983 ± 0.038 for the second.

GGTACAGGGA and TTTGAAGACT are within error of each other in switch fluorescence ratio: 1.02 ± 0.015 for the first, 0.98 ± 0.028 for the second.

GGGTCTTATG and AGTAACATTT are within error of each other in switch fluorescence ratio: 1.03 ± 0.078 for the first, 0.974 ± 0.069 for the second.

TTGGTTTGCT and CGCAGATTCG are the same in switch fluorescence ratio: 1.005 ± 0.0045 for the first, 1.01 ± 0.024 for the second.

AGGTACAGAC and GAAAATTTTT are within error of each other in switch fluorescence ratio: 1.12 ± 0.024 for the first, 1.06 ± 0.044 for the second.

First: GCGATATATG
Second: GATGAATGGA
The switch fluorescence ratio of the first is higher: 0.9775 ± 0.0032 for the first, 0.959 ± 0.011 for the second.

ATTTTGCCGT and TTTCTAAGGG are within error of each other in switch fluorescence ratio: 1.02 ± 0.027 for the first, 1.07 ± 0.061 for the second.
